“And” between values parts separate entries of the source, which are not always exact repeats. Equal values may be shown once.

The target of experiment [1] is Mtb PhoP, phosphorylated with acetyl phosphate (AcP) (Mycobacterium tuberculosis) (UniProt P71814). Kind of experiment: […].
For experiment [2] the target is unchanged. The experiment is described as follows: […]. This is another data set of the same source.
Experiment [3] has the same target. The experiment is described as follows: cryo-EM structure.

A word on the stoichiometry N: it is a count of units in the complex or per binding partner. For “Mtb PhoP, phosphorylated with acetyl phosphate (AcP) (from UniProt P71814 1-247) (natural protein)”, the stoichiometry N in experiment [1] is 6 and 4; in experiment [2], 2; in experiment [3] it was 2.

The record behind these values is paper doi:10.1101/2024.05.16.594476.
